Measurements: patent publication US20120114652A1 (AbbVie / Abbott, published 2012)
Each block holds one binder with its values, some of them ahead of it.

Legend:
[1] = biological target: T1, glycosylated active human PAI-1 produced by CHO cells (human, UniProt P05121 24-402, N-glycosylated (CHO-produced)); assay: SPR BIAcore T100, Antibody 08 on CM3 chip, PAI-1 as analyte, 25 C, n = 5
T1 construct: also called hu glyco; human glycosylated PAI-1

cynomolgus PAI-1 [2] = biological target: T2, cynomolgus PAI-1 (cynomolgus, UniProt P05121 24-402 (human entry), limits assumed); assay: as above
T2 construct: bacterially derived, made in house; also called cyno PAI-1

[3] = biological target: T1, glycosylated active human PAI-1 …; assay: SPR BIAcore T100, Antibody 08 on CM3 chip, PAI-1 as analyte, 37 C, n = 2
rat PAI-1 [4] = biological target: T3, rat PAI-1 (rat, UniProt P20961 24-402); assay: SPR BIAcore T100, Antibody 08 on CM3 chip, PAI-1 as analyte, 25 C, n = 2
T3 construct: bought (US Biological)
T3 sequence: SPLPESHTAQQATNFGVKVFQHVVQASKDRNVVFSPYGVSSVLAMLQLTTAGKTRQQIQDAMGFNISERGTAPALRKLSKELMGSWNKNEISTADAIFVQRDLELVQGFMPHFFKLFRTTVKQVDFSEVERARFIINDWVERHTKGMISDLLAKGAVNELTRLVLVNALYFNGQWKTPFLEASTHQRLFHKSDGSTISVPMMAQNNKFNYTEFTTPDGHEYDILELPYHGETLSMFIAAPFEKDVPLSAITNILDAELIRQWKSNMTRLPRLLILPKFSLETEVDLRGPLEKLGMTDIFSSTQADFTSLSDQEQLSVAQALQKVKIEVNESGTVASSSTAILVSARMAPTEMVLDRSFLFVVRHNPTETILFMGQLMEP

cynomolgus PAI-1 [5] = biological target: T2, cynomolgus PAI-1; assay: SPR BIAcore T100, Antibody 08 on CM3 chip, PAI-1 as analyte, 37 C, n = 1
[6] = biological target: T4, R271S stable mutant human PAI-1 (human, UniProt P05121 24-402); assay: SPR BIAcore 2000, Antibody 08 on CM5 chip, PAI-1 protein as analyte
T4 construct: His-tagged, expressed in E. coli
T4 chain: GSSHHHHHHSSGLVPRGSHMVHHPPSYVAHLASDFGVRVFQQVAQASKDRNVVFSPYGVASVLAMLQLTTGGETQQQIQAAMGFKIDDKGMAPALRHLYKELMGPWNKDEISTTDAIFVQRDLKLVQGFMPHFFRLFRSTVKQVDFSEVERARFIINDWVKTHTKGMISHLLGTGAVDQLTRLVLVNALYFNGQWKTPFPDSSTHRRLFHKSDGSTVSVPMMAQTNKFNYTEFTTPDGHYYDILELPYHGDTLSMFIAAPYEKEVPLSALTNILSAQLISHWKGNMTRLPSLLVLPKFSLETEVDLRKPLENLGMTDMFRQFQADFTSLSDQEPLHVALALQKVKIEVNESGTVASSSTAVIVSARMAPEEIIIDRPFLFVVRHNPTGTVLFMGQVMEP

[7] = biological target: T5, Y220S T267K stable mutant human PAI-1 (human, UniProt P05121 24-402); assay: as above
T5 construct: His-tagged, expressed in E. coli
T5 chain: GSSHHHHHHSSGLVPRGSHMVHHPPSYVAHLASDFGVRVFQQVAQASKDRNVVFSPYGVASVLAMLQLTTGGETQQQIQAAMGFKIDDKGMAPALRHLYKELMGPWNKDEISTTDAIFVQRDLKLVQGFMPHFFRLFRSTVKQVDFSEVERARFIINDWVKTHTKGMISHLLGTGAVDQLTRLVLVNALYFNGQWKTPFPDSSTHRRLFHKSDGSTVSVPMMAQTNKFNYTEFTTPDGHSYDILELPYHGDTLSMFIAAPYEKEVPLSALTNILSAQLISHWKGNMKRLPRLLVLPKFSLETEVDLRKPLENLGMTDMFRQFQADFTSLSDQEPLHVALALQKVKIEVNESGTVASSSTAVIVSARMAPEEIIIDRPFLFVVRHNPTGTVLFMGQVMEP

[8] = biological target: T6, human PAI-1, active, wild-type, non-glycosylated (E. coli-derived) (human, UniProt P05121 24-402); assay: cell-based or functional assay
rat PAI-1 [9] = biological target: T3, rat PAI-1; assay: cell-based or functional assay
cynomolgus PAI-1 [10] = biological target: T2, cynomolgus PAI-1; assay: cell-based or functional assay
α2-antiplasmin = biological target: T7, α2-antiplasmin (UniProt P08697 40-491, limits assumed); assay: competition ELISA (DELFIA): PICK167_A01-fgl IgG1 (CAT-1001) coated on the plate, biotinylated human PAI-1, titration of the unlabelled test antigen
T7 sequence (looked up): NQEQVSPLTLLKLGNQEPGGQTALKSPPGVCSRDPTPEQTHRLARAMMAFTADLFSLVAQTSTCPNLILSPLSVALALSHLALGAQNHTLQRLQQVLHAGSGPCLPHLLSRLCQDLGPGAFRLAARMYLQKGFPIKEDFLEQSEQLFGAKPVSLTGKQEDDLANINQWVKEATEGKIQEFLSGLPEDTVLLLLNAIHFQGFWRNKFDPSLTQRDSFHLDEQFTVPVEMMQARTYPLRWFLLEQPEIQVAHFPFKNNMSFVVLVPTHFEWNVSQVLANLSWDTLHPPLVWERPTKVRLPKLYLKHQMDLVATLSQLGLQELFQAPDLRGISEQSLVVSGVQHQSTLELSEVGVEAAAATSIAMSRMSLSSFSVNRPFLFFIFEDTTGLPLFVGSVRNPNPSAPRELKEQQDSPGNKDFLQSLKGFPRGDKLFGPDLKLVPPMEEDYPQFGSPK

PAI-2 = PAI-2 (UniProt P05120 1-415, limits assumed); assay: as above
PAI-3 = biological target: T8, PAI-3 (UniProt P05154 26-406, limits assumed); assay: as above
T8 sequence (looked up): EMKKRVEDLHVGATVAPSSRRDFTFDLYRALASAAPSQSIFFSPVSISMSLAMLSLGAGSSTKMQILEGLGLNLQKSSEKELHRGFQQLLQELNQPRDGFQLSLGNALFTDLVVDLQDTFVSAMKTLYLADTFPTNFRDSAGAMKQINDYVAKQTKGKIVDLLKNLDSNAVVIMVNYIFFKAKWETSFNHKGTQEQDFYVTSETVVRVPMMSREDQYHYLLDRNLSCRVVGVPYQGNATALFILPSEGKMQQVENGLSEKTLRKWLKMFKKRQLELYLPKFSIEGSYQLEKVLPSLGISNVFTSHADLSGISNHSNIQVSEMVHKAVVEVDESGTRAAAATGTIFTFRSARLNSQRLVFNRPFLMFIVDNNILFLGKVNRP

α1-antitrypsin = biological target: T9, α1-antitrypsin (UniProt P01009 25-418); assay: as above
T9 construct: also called alpha-1-antitrypsin

antithrombin III = antithrombin III (UniProt P01008 33-464); assay: as above
α1-antichymotrypsin = biological target: T10, α1-antichymotrypsin (UniProt P01011 24-423); assay: as above
T10 sequence (looked up): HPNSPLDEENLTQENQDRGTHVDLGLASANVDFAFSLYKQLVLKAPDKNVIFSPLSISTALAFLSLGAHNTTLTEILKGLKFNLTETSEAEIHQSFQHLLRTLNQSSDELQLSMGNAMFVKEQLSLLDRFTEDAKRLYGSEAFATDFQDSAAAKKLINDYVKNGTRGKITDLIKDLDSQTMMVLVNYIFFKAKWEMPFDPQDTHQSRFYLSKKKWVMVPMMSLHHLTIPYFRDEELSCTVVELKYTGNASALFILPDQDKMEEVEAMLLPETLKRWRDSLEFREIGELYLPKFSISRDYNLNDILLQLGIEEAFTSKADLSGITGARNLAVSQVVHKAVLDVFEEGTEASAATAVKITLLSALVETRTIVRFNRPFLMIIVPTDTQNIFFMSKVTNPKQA

[11] = biological target: T6, human PAI-1, active, wild-type, …; assay: SPR BIAcore, CAT-1001 amino-linked to CM3 chip, human wild-type PAI-1 as analyte, 1:1 Langmuir

Kd [1]: 6 pM | Kd (cynomolgus PAI-1 [2]): 13 pM | Kd [3]: 7 pM | Kd (rat PAI-1 [4]): 105 pM | Kd (cynomolgus PAI-1 [5]): 13 pM | Kd [6]: 7400 pM | Kd [7]: 140 pM
B1: Antibody 08 (as coupled to the BIAcore chip; format not stated) (antibody, V domains shown)
VH: QVQLVQSGAEVKKPGSSVKVSCKASGGTFSSYAISWVRQAPGQGLEWMGGIIPTFGTANYAQKFQGRVTITADESTSTAYMELSSLRSEDTAVYYCARERRQWLEGHFDYWGRGTLVTVSS
VL: DIQMTQSPSTLSASVGDRVTITCRASEGIYHNLAWYQQKPGKAPKLLIYKASSLASGVPSRFSGSRSGTEFTLTISSLQPDDFATYYCQQYSNYPLTFGGGTKVEIK
notes: also called candidate antibody (Antibody 08)

IC50, HT1080 plasminogen activation assay [8]: 13200 pM | IC50, PAI-1:tPA functional assay [8]: 1650 pM | pIC50, HT1080 plasminogen activation assay [8]: 7.87 | IC50, HT1080 plasminogen activation assay (rat PAI-1 [9]): 22800 pM | IC50, PAI-1:tPA functional assay (rat PAI-1 [9]): 3070 pM | pIC50, HT1080 plasminogen activation assay (rat PAI-1 [9]): 7.64 | IC50, PAI-1:tPA functional assay (cynomolgus PAI-1 [10]): 770 pM | Kd [11]: 16 pM
B2: PICK167_A01-fgl IgG1 (CAT-1001) (antibody, V domains shown)
VH: QVQLVQSGAEVKKPGSSVKVSCKASGGTFSSYAISWVRQAPGQGLEWMGGIIPTFGTANYAQKFQGRVTITADESTSTAYMELSSLRSEDTAVYYCARERRQWLEGHFDYWGRGTLVTVSS
VL: DIQMTQSPSTLSASVGDRVTITCRASEGIYHNLAWYQQKPGKAPKLLIYKASSLASGVPSRFSGSRSGTEFTLTISSLQPDDFATYYCQQYSNYPLTFGGGTKVEIKR
notes: fully germlined variant, made as an IgG1 only; also called PICK67A01-fgl
binding result (α2-antiplasmin): no binding (tested: log M about -6.3 (about 5e-7 M)) | binding result (PAI-2): no binding (tested: log M about -6.3 (about 5e-7 M)) | binding result (PAI-3): no binding (tested: log M about -6.3 (about 5e-7 M)) | binding result (α1-antitrypsin): no binding (tested: log M about -6.3 (about 5e-7 M)) | binding result (antithrombin III): no binding (tested: log M about -6.3 (about 5e-7 M)) | binding result (α1-antichymotrypsin): no binding (tested: log M about -6.3 (about 5e-7 M))
